The target in test [1] is DNA polymerase II (Escherichia coli) (UniProt P21189).
The target of test [2] is MBP-UmuC fusion protein (maltose binding protein fused to UmuC, DNA polymerase V) (Escherichia coli).
Test [3] has as its target DNA polymerase I (Escherichia coli) (UniProt P00582).
Test [4] addresses DNA polymerase III holoenzyme.

Here are results for three substances from patent US6333178.

RecA (from UniProt P0A7G6) registered a Cro- mutation frequency after gap-filling replication by pol II with UmuD', RecA, SSB (Cro- mutation frequency per gene) in test [1] of 0.00065. The Cro- mutation frequency after in vitro gap-filling replication, RecA omitted (Cro- mutation frequency per gene) in test [2] was found to be 0.00025. In test [3], this substance returned a Cro- mutation frequency after gap-filling replication by pol I with UmuD', RecA, SSB (Cro- mutation frequency per gene) of 0.00078. The substance further came in with a Cro- mutation frequency after gap-filling replication by pol III holoenzyme with UmuD', RecA, SSB (Cro- mutation frequency per gene) in test [4] of 0.00081.
Regarding “SSB (single stranded DNA-binding protein) (from UniProt P0AGE0)”, the Cro- mutation frequency after gap-filling replication by pol II with UmuD', RecA, SSB (Cro- mutation frequency per gene) in test [1] came out at 0.00065. This substance also gave a Cro- mutation frequency after in vitro gap-filling replication, SSB omitted (Cro- mutation frequency per gene) in test [2] of 0.00051. This substance showed a Cro- mutation frequency after gap-filling replication by pol I with UmuD', RecA, SSB (Cro- mutation frequency per gene) in test [3] of 0.00078. Further, the Cro- mutation frequency after gap-filling replication by pol III holoenzyme with UmuD', RecA, SSB (Cro- mutation frequency per gene) in test [4] was 0.00081.
With UmuD' (from UniProt P0AG11), the Cro- mutation frequency after gap-filling replication by pol II with UmuD', RecA, SSB (Cro- mutation frequency per gene) in test [1] came out at 0.00065. This substance also gave a Cro- mutation frequency after in vitro gap-filling replication, UmuD' omitted (Cro- mutation frequency per gene) in test [2] of 0.00027. In test [3], this substance yielded a Cro- mutation frequency after gap-filling replication by pol I with UmuD', RecA, SSB (Cro- mutation frequency per gene) of 0.00078. The Cro- mutation frequency after gap-filling replication by pol III holoenzyme with UmuD', RecA, SSB (Cro- mutation frequency per gene) in test [4] worked out at 0.00081.
